The results in this text go back to PMC4793259 (Journal of Extracellular Vesicles, 2016).

This experiment has as its target epidermal growth factor receptor (Homo sapiens (A431, HeLa cells), UniProt P00533). Nature of the experiment: flow cytometry on cells.

B1: GPI-anchored HA-tagged R2 nanobody (DAF-R2) displayed on Neuro2A extracellular vesicles (VHH)
VHH: QVQLQESGGGLVQAGGSLRLSCAASGRAASGHGHYGMGWFRQVPGKEREFVAAIRWSGKETWYKDSVKGRFTISRDNAKTTVYLQMNSLKGEDTAVYYCAARPVRVADISLPVGFDYWGQGTQVTVSS
As for B1, the binding result is reported as “no binding (tested: 5 µg/mL)”.
